# What was measured:
# [1] = target: T1, human ErbB2, full length, on cells (human, UniProt P04626 23-1255); test: cell-based or functional assay
# [2] = target: T2, human ErbB2 ECD-myc/His fusion protein (human, UniProt P04626 23-652); test: SPR, Biacore 2000 medium resolution; mAb captured on goat anti-human IgG, ErbB2(ECD)-cMyc/His injected; 1:1 fit
# T2 construct: Made in-house in 293T cells; also called hErbB2(ECD)/cMyc-His; huErbB2 (ECD)/c-myc-His; not shown: c-myc/His tag of the pSecTag2Hygro vector
# Method: The binding affinity of eight of the anti-ErbB2 antibodies was measured by medium resolution Biacore. All experiments were performed using a Biacore 2000 instrument.
# First, 12 high-density goat α-human IgG antibody surfaces over three CM5 Biacore chips were prepared using routine amine coupling. […] Before each antigen injection cycle, each mAb was captured for six to nine seconds at a 100 μL/min flow rate. A 2-minute wash step followed each capture injection to stabilize each mAb baseline. […] All samples were randomly injected with several mAb capture/buffer inject cycles interspersed for double referencing. […] A flow rate of 100 μL/min. was used for all injection cycles. The data was fit to a 1:1 interaction model using CLAMP.
# [3] = target: T1, human ErbB2, full length, on cells; test: cell-based or functional assay; remark: listed apart in the source
# [4] = target: T1, human ErbB2, full length, on cells; test: cell-based or functional assay; remark: listed apart in the source
# [5] = target: T2, human ErbB2 ECD-myc/His fusion protein; test: limited antigen ELISA, 31 ng/ml ErbB2 ECD-myc/His coated, supernatant 1:25
# Method: […] […] Antigen-coated plates were washed three times, blocked with 1% non-fat skim milk/PBS for at least 30 minutes at room temperature, and then washed again three times. Each hybridoma line sample was titrated in 1% non-fat skim-milk/PBS 1:3 for 7 points starting from a 1:25 dilution. […] The next day, plates were washed three times and incubated with 50 μl of 400 ng/ml immunopure Goat anti-human IgG (Fc)-HRP (Pierce catalog #31416) for 1 hour at room temperature. Then, the plates were extensively washed and pat dried on paper towel to remove residual HRP in wells. HRP substrate TMB (enhanced K-blue TMB, Neogen catalog #308177) was added to each well and incubated for 30 min. The reaction was stopped by addition of 1N HCl. Optical density at 450 nm was read on a microplate reader (Titerteck Multiskan Ascent).
# [6] = target: T1, human ErbB2, full length, on cells; test: cell-based or functional assay; remark: listed apart in the source
# [7] = target: T1, human ErbB2, full length, on cells; test: cell-based or functional assay; remark: listed apart in the source
# [8] = target: T1, human ErbB2, full length, on cells; test: cell-based or functional assay; remark: listed apart in the source
# [9] = target: T2, human ErbB2 ECD-myc/His fusion protein; test: SPR, Biacore T100 high resolution; mAb captured on goat anti-human IgG, hHer-2(ECD)cMyc injected; 1:1 fit
# Method: All experiments were performed using a Biacore T100 instrument. First, a high-density goat α human IgG antibody (Caltag H10500) surface was prepared over two CM5 Biacore chips using routine amine coupling. Each mAb was diluted in HBS-P running buffer containing 100 μg/ml Bovine serum albumin (BSA).
# A capture level protocol was developed for all five mAbs. Before each antigen injection cycle, each mAb was captured for 15 to 30 seconds at a 20 μL/min flow rate. A 5-minute wash step followed each capture injection to stabilize each mAb baseline. […] The samples were prepared in the running buffer described above. All samples were randomly injected with several mAb capture/buffer inject cycles interspersed for double referencing. […] A flow rate of 50 μL/min. was used for all injection cycles.
# All sensorgram data were fit to a 1:1 interaction model using CLAMP.
"N1 % Inhibition @40 µg/ml, BT474 cell proliferation [1] [%]","N1 EC50 (ng/ml), inhibition of BT474 cell proliferation [1] [ng/mL]","N2 % Inhibition @40 µg/ml, BT474 cell proliferation [1] [%]","N2 EC50 (ng/ml), inhibition of BT474 cell proliferation [1] [ng/mL]",Kd [2] [nM],koff [2] [s⁻¹],kon [2] [M⁻¹ s⁻¹],"1 hr pTyr inhibition % (Heregulin-induced ErbB2 phosphorylation in MCF7 cells, hybridoma supernatant) [3] [%]","24 hr pTyr inhibition % (Heregulin-induced ErbB2 phosphorylation in MCF7 cells, hybridoma supernatant) [3] [%]","EC50 (ng/ml) n1, inhibition of Heregulin-induced ErbB2 phosphorylation in MCF7 cells [4] [ng/mL]","EC50 (ng/ml) n2, inhibition of Heregulin-induced ErbB2 phosphorylation in MCF7 cells [4] [ng/mL]",LA at 31 ng/ml (OD) [5] [OD 450 nm],"% Inhibition @10 µg/ml (n1), ErbB2 phosphorylation in BT474 cells at 48 hours [6] [%]","% Inhibition @10 µg/ml (n2), ErbB2 phosphorylation in BT474 cells at 48 hours [6] [%]","% inhibition @36 µg/ml, SKBR3 cell proliferation [7] [%]","EC50 (ng/ml), inhibition of SKBR3 cell proliferation [7] [ng/mL]","% Inhibition @10 µg/ml, Heregulin-induced MCF7 cell proliferation [8] [%]","EC50 (ng/ml), inhibition of Heregulin-induced MCF7 cell proliferation [8] [ng/mL]",Binder,other results
34,38.1,39,28.2,3,0.000302,100000,85,96,4.2,10.8,3.03,24,33,46,26.3,94,415,"monoclonal antibody 1.18.1 (antibody, V domains shown, Fully human IgG (gamma/kappa) from a XenoMouse XM3B-3 hybridoma; constant regions not tied to it) VH: EVQLVESGGGLVKPGGSLRLSCAASGFTFSSYSMNWVRQAPGKGLEWVSSISSSSSYIYYADSVKGRFTISRDNAKNSLYLQMNSLSAEDTAVYSCARGGDGYNYYYFDYWGQGTLVTVSS VL: DIVMTQSPGSLVVSLGERATITCKSSQSVFFRSNNKNCLAWYQQRPGQSPNLLIYWASTRESGVPDRFSGSGSGTDFTLTISSLQAEDVAVYYCQQYFGSPFTFGPGTKVDIK",
29,156,40,42.3,2,0.000236,115000,82,99,46.9,26.3,2.57,37,26,41,68.9,89,479,"monoclonal antibody 1.39 (antibody, V domains shown, Fully human IgG (gamma/kappa) from a XenoMouse XM3B-3 hybridoma; constant regions not tied to it; also called 1.39.1; 1.39.2) VH: EVQLVESGGGLVKPGGSLRLSCAASGFTFSSYSMNWVRQAPGKGLEWVSSISSSSSYIYYADSVKGRFTISRDNAKNSLYLQMNSLRAEDTAVYYCARGGDGYNYYYFDYWGQGTLVTVSS VL: DIVMTQSPDSLAVSLGERATITCKSSQSVFFRSNNKNCLAWYQQRPGQPPNLLIYWASSRESGVPDRFSGSGSGTDFALTISSLQTEDVAVYYCQQYFGSPFTFGPGTKVDIK",Kd [9]: 13.4 nM; koff [9]: 0.000214 s⁻¹; kon [9]: 16000 M⁻¹ s⁻¹

# Source: patent US20130089544A1 (AstraZeneca / MedImmune, published 2013)
